pKd: −log10 of the molar value.
Assays:
[1] = target: HLA-A*02:01; test: IEDB peptide-MHC binding, purified MHC/direct/fluorescence; filed as Kd, often an IC50 or EC50 that approximates it; ≥ and ≤ were set here for values at or beyond the usual limits of such assays
[2] = target: HLA-A*02:03; test: as above
[3] = target: HLA-A*02:11; test: as above
[4] = target: HLA-A*02:12; test: as above
[5] = target: HLA-A*02:16; test: as above; conditions: source organism: Vibrio vulnificus CMCP6
[6] = target: HLA-A*02:19; test: as above
[7] = target: HLA-A*03:01; test: as above
[8] = target: HLA-A*24:03; test: as above
[9] = target: HLA-A*26:01; test: as above
[10] = target: HLA-B*07:02; test: as above
[11] = target: HLA-B*15:01; test: as above
[12] = target: HLA-B*18:01; test: as above
[13] = target: HLA-B*27:03; test: as above
[14] = target: HLA-B*35:01; test: as above
[15] = target: HLA-B*46:01; test: as above
[16] = target: HLA-B*57:01; test: as above
[17] = target: HLA-B*15:17; test: as above
[18] = target: HLA-B*39:01; test: as above
[19] = target: HLA-B*51:01; test: as above
[20] = target: HLA-A*01:01; test: as above; conditions: source organism: Francisella tularensis subsp. tularensis
[21] = target: HLA-A*11:01; test: as above; conditions: source organism: Francisella tularensis subsp. tularensis
[22] = target: HLA-A*68:02; test: as above
[23] = target: HLA-A*69:01; test: as above
[24] = target: HLA-B*08:02; test: as above; conditions: source organism: Francisella tularensis subsp. tularensis FSC033
[25] = target: HLA-B*08:03; test: as above; conditions: source organism: Francisella tularensis subsp. tularensis FSC033
[26] = target: HLA-B*15:09; test: as above; conditions: source organism: Francisella tularensis subsp. tularensis FSC033
[27] = target: HLA-B*58:01; test: as above; conditions: source organism: Francisella tularensis subsp. tularensis
[28] = target: HLA-A*02:06; test: IEDB peptide-MHC binding, purified MHC/competitive/fluorescence; filed as Kd, often an IC50 or EC50 that approximates it; ≥ and ≤ were set here for values at or beyond the usual limits of such assays; conditions: source organism: Francisella tularensis subsp. tularensis FSC198
[29] = target: HLA-B*57:01; test: IEDB peptide-MHC binding, purified MHC/competitive/radioactivity; filed as Kd, often an IC50 or EC50 that approximates it; ≥ and ≤ were set here for values at or beyond the usual limits of such assays
[30] = target: HLA-B*58:01; test: as above; conditions: source organism: Dengue virus 3 Martinique/1243/1999
[31] = source organism: Vibrio vulnificus CMCP6
[32] = source organism: Giardia lamblia ATCC 50803
[33] = source organism: Francisella tularensis subsp. tularensis
[34] = source organism: Campylobacter jejuni

In the case of MPIAAAIGT, the pKd [1, 31] was ≤ 4.70, the pKd [2, 31] was ≤ 4.70 and the pKd [3, 31] was ≤ 4.70. For the same sequence, the pKd [4, 31] was ≤ 4.70, the pKd [5] was ≤ 4.70 and the pKd [6, 31] was ≤ 4.70. For the same sequence, the pKd [7, 31] was ≤ 4.70, the pKd [8, 31] was ≤ 4.70 and the pKd [9, 31] was ≤ 4.70. The pKd [10, 31] was 6.00, the pKd [11, 31] was ≤ 4.70 and the pKd [12, 31] was ≤ 4.70. For the same sequence, the pKd [13, 31] was ≤ 4.70, the pKd [14, 31] was 8.52 and the pKd [15, 31] was ≤ 4.70. For the same sequence, the pKd [16, 31] was ≤ 4.70.

For PPPPLQHPI, the pKd [7, 32] was ≤ 4.70, the pKd [8, 32] was ≤ 4.70 and the pKd [9, 32] was ≤ 4.70. The pKd [11, 32] was ≤ 4.70, the pKd [17, 32] was ≤ 4.70 and the pKd [12, 32] was ≤ 4.70. The pKd [13, 32] was ≤ 4.70, the pKd [18, 32] was ≤ 4.70 and the pKd [15, 32] was ≤ 4.70. The pKd [19, 32] was ≤ 5.30 and the pKd [16, 32] was ≤ 4.70.

With RYSNFAWYF the pKd [20] was ≤ 4.70, the pKd [1, 33] was ≤ 4.70 and the pKd [21] was ≤ 4.70. The pKd [8, 33] was 6.44, the pKd [22, 33] was ≤ 4.70 and the pKd [23, 33] was ≤ 4.70. For the same sequence, the pKd [10, 33] was ≤ 4.70, the pKd [24] was ≤ 4.70 and the pKd [25] was ≤ 4.70. The pKd [11, 33] was ≤ 4.70, the pKd [26] was ≤ 4.70 and the pKd [17, 33] was ≤ 4.70. The pKd [12, 33] was ≤ 4.70, the pKd [16, 33] was ≤ 4.70 and the pKd [27] was ≤ 4.70. For the same sequence, the pKd [28] was ≤ 4.70.

For SFWFFHPPY, the pKd [2, 34] was ≤ 4.70, the pKd [3, 34] was ≤ 4.70 and the pKd [4, 34] was ≤ 4.70. For the same sequence, the pKd [6, 34] was ≤ 4.70, the pKd [7, 34] was ≤ 4.70 and the pKd [9, 34] was ≤ 4.70. The pKd [22, 34] was ≤ 4.70, the pKd [23, 34] was ≤ 4.70 and the pKd [10, 34] was ≤ 4.70. The pKd [11, 34] was 5.30, the pKd [13, 34] was ≤ 4.70 and the pKd [14, 34] was 6.45. The pKd [18, 34] was ≤ 4.70, the pKd [15, 34] was ≤ 4.70 and the pKd [19, 34] was ≤ 4.70. For the same sequence, the pKd [16, 34] was ≤ 4.70.

TASGINMCTL was tested, and the pKd ([29]; source organism: Dengue virus 3 Martinique/1243/1999) was 5.25 and the pKd [30] was 6.99.

In the case of TTEDMLAVW, the pKd ([29]; source organism: Dengue virus 2 Jamaica/1409/1983) was 7.52.

Source: the Immune Epitope Database (IEDB)
